Measurements as given in article doi:10.1101/2020.10.14.338756.

Tests used:
[1] = target: BPTI_A16S, displayed on yeast (bovine)
[2] = target: BPTI_K15R, displayed on yeast (bovine)
[3] = target: BPTI_K15A, displayed on yeast (bovine)

Bovine trypsin (enzyme)
ΔΔG bind against BPTIWT [1]: 4.5 kcal/mol | ΔΔG bind against BPTIWT [2]: -1.4 kcal/mol | ΔΔG bind against BPTIWT [3]: 11.1 kcal/mol
